The numbers were not newly measured in patent US20230233498A1, “COMPOSITIONS AND METHODS FOR THE TREATMENT OF COVID-19” (PROTHIONE, LLC, priority 2020, published 2023), which cites them from elsewhere.

One series deals with Ebola virus (EBOV). The settings on record: cells expressing NZAP-Zeo or full-length ZAP.
Another series concerns EBOV replicon system. To be noted: transient expression.

B1: ZAP: zinc finger antiviral protein (protein, UniProt Q7Z2W4 2-902, looked up)
Zinc finger CCCH-type …: ADPEVCCFITKILCAHGGRMALDALLQEIALSEPQLCEVLQVAGPDRFVVLETGGEAGITRSVVATTRARVCRRKYCQRPCDNLHLCKLNLLGRCNYSQSERNLCKYSHEVLSEENFKVLKNHELSGLNKEELAVLLLQSDPFFMPEICKSYKGEGRQQICNQQPPCSRLHICDHFTRGNCRFPNCLRSHNLMDRKVLAIMREHGLNPDVVQNIQDICNSKHMQKNPPGPRAPSSHRRNMAYRARSKSRDRFFQGSQEFLASASASAERSCTPSPDQISHRASLEDAPVDDLTRKFTYLGSQDRARPPSGSSKATDLGGTSQAGTSQRFLENGSQEDLLHGNPGSTYLASNSTSAPNWKSLTSWTNDQGARRKTVFSPTLPAARSSLGSLQTPEAVTTRKGTGLLSSDYRIINGKSGTQDIQPGPLFNNNADGVATDITSTRSLNYKSTSSGHREISSPRIQDAGPASRDVQATGRIADDADPRVALVNDSLSDVTSTTSSRVDDHDSEEICLDHLCKGCPLNGSCSKVHFHLPYRWQMLIGKTWTDFEHMETIEKGYCNPGIHLCSVGSYTINFRVMSCDSFPIRRLSTPSSVTKPANSVFTTKWIWYWKNESGTWIQYGEEKDKRKNSNVDSSYLESLYQSCPRGVVPFQAGSRNYELSFQGMIQTNIASKTQKDVIRRPTFVPQWYVQQMKRGPDHQPAKTSSVSLTATFRPQEDFCFLSSKKYKLSEIHHLHPEYVRVSEHFKASMKNFKIEKIKKIENSELLDKFTWKKSQMKEEGKLLFYATSRAYVESICSNNFDSFLHETHENKYGKGIYFAKDAIYSHKNCPYDAKNVVMFVAQVLVGKFTEGNITYTSPPPQFDSCVDTRSNPSVFVIFQKDQVYPQYVIEYTEDKACVIS
For B1, in the series with Ebola virus (EBOV), the EBOV inhibited result is on record as “up to 4 log units”. In the series on EBOV replicon system, the “decreased activity of an EBOV replicon system” value was “up to 95%”.
